Test results: paper doi:10.1101/2024.07.10.602929 (bioRxiv, 2024)
Where no end group is shown, it is not given here. [ ]: non-standard residue; d: D form. The star is where a group is joined. Biotin = O=C1N[C@H]2[C@H](CS[C@H]2CCCCC(=O)*)N1; pY = N[C@@H](Cc1ccc(OP(=O)(O)O)cc1)C(=O)O

B1: EGFR LIR1 peptide phosphorylated at Y1092 (peptide, UniProt P00533 1076-1099, looked up)
peptide: Biotin-ALTEDSIDDTFLPVPE[pY]INQSVPK
notes: EGFR residues 1076-1099 (LIR1); also called phosphorylated (p) EGFR LIR1 variant pY1092; source: synthetic peptide, bought: CASLO (≥95% purity)
B2: EGFR LIR2 peptide phosphorylated at Y1197 (peptide, UniProt P00533 1190-1210, looked up)
peptide: Biotin-STAENAE[pY]LRVAPQSSEFIGA
notes: EGFR residues 1190-1210 (LIR2); also called LIR2 pY1197; source: synthetic peptide, bought: CASLO (≥95% purity)
B3: PCM1 LIR peptide (pericentriolar material 1 protein residues 1954-1968), N-terminally biotinylated (peptide, UniProt Q15154 1954-1968, looked up)
peptide: Biotin-ISQKSDEEDFVKVED
notes: Pericentriolar material 1 protein (PCM1), LIR motif, residues 1954-1968; source: synthetic peptide, bought: CASLO (≥95% purity)
B4: EGFR LIR1 peptide (EGFR residues 1076–1099), N-terminally biotinylated (peptide)
peptide: Biotin-ALTEDSIDDTFLPVPEYINQSVPK
notes: Epidermal growth factor receptor (EGFR), residues 1076-1099 of the regulatory C-terminal domain, core LIR FLPV at 1086-1089; also called EGFR LIR1_(1076–1099); source: synthetic peptide, bought: CASLO (≥95% purity)
B5: EGFR LIR2 peptide (EGFR residues 1190–1210), N-terminally biotinylated (peptide, UniProt P00533 1190-1210, looked up)
peptide: Biotin-STAENAEYLRVAPQSSEFIGA
notes: Epidermal growth factor receptor (EGFR), residues 1190-1210, core LIR YLRV at 1197-1200; source: synthetic peptide, bought: CASLO (≥95% purity)

Tests used:
Test in all cases: BLI; Octet Red 96; N-terminally biotinylated peptides immobilised on High Precision Streptavidin (SAX) biosensors; purified hATG8 proteins as analyte in increasing concentrations; steady-state evaluation, one-site binding model; individual measurements unless stated otherwise
Conditions in all cases: both partners purified
[1] = target: T1, LC3A (human, UniProt Q9H492 1-121)
T1 construct: LC3A, human, full-length (unprocessed) version; also called MAP1LC3 (microtubule-associated protein 1 light chain 3) A; source: E. coli BL21(DE3), pGEX-4-T2, purified (Glutathione Sepharose 4B, thrombin cleavage, SEC)

[2] = target: T2, GABARAPL2 (human, UniProt P60520 1-117)
T2 construct: GABARAPL2, human, full-length (unprocessed) version; source: E. coli BL21(DE3), pGEX-4-T2, purified (Glutathione Sepharose 4B, thrombin cleavage, SEC)
T2 sequence (P60520 whole entry): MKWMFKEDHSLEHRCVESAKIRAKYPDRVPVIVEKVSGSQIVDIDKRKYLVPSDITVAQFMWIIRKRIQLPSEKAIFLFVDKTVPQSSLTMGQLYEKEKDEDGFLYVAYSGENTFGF

[3] = target: T3, GABARAPL1 (human, UniProt Q9H0R8 1-117)
T3 construct: GABARAPL1, human, full-length (unprocessed) version; source: E. coli BL21(DE3), pGEX-4-T2, purified (Glutathione Sepharose 4B, thrombin cleavage, SEC)

[4] = target: T4, GABARAP (γ-aminobutyric acid type A receptor-associated protein) (human, UniProt O95166 1-117)
T4 construct: GABARAP, human, full-length (unprocessed) version; For the NMR titrations the same construct was made 15N-labelled in M9 minimal medium; also called 15N-GABARAP; free GABARAP; source: E. coli BL21(DE3), pGEX-4-T2, purified (Glutathione Sepharose 4B, thrombin cleavage, SEC)
T4 sequence (O95166 whole entry): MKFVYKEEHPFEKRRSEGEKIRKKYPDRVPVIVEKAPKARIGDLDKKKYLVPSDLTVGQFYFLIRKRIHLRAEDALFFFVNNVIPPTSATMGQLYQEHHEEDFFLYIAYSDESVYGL

[5] = target: T5, GABARAPL1 Y49A/L50A (human, UniProt Q9H0R8 1-117, Y49A | L50A)
T5 construct: GABARAPL1, human, full-length (unprocessed) version with Y49A and L50A; everywhere else Y49A/L50A; also called GABARAPL1_(Y49A/L59A); source: E. coli BL21(DE3), pGEX-4-T2, purified (Glutathione Sepharose 4B, thrombin cleavage, SEC)
T5 sequence (Q9H0R8 whole entry Y49A/L50A): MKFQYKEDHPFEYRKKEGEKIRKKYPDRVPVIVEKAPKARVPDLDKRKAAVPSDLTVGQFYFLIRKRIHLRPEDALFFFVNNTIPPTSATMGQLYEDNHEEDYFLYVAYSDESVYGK

[6] = target: T6, GABARAP Y49A/L50A (human, UniProt O95166 1-117, Y49A | L50A)
T6 construct: GABARAP, human, full-length (unprocessed) version with Y49A and L50A; source: E. coli BL21(DE3), pGEX-4-T2, purified (Glutathione Sepharose 4B, thrombin cleavage, SEC)
T6 sequence (O95166 whole entry Y49A/L50A): as the sequence (O95166 whole entry) above, with Y49A, L50A counted along it

Binder	binding result [1]	binding result [2]	binding result [3]	further results
B1	binds	binds	–	–
B2	binds	binds	binds	binding result [4]: binds
B3	–	–	–	Kd [5]: 273 µM; Kd [6]: 99.2 µM; Kd [4]: 4.2 µM
B4	–	–	–	Kd [3]: 29.7 µM
B5	binds	binds	binds	–
